In US20240261333A1 (published 2024):

Key:
Experiment in all cases: co-IP with anti-FLAG, mass spectrometry; lysate of cells with N-FLAG B3GNT2
CCT7 = target: T1, CCT7 (human, UniProt Q99832-3 1-499, limits assumed)
T1 construct: also called NP_001159757.1 (+1)
T1 sequence (looked up): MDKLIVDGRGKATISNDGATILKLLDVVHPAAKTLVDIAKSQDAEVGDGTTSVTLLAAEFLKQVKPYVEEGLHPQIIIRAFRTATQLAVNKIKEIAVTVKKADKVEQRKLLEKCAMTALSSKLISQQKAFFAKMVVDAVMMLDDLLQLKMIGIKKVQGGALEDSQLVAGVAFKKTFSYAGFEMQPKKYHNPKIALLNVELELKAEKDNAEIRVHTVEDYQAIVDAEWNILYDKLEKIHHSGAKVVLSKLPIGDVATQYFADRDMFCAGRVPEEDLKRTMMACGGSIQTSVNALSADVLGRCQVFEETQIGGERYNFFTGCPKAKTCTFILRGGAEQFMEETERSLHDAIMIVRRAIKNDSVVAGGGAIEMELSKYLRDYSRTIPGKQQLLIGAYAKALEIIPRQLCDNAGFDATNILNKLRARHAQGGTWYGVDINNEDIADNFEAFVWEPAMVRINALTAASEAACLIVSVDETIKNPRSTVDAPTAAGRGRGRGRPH
Experimental: (§1) Cells were plated in 10-cm cell culture dishes and grown to 60-80% confluency. For each condition, two biological replicates were harvested for co-IP. Cells were washed with PBS and 4 mL of lysis buffer (20 mM HEPES, 1% Triton X-100, 150 mM NaCl, 1 mM EDTA, and 10% glycerol) containing protease inhibitor cocktail was added. Cells were scraped and lysate was incubated at 4° C. under rotary agitation for 1 h. Lysate was centrifuged at 14,000×g for 10 min at 4° C. Supernatant was transferred to a new tube and an aliquot was taken as the input. […] For Western blots, 10 μg/mL Chicken Anti-FLAG (Aves labs ET-DY100) and IgY control (R&D Systems AB-101-C) antibodies were biotinylated (Thermo Fisher Scientific 90407) and added to the respective conditions. Lysates with antibodies were incubated at 4° C. under rotary agitation overnight. For each mL of lysate, 50 μL of Pierce Protein A/G Magnetic Beads (Mass spectrometry; Thermo Fisher Scientific 88803) or Pierce Streptavidin Magnetic Beads (Western blot; Thermo Fisher Scientific 88817) was washed twice with lysis buffer. Lysates with antibodies were added to the beads and incubated at 4° C. under rotary agitation for 4 h. Beads were washed with lysis buffer 3 times and resuspended in lysis buffer for storage.
(§2) Magnetic beads were resuspended in 100 mM Tris pH 7.8, reduced, alkylated and digested with trypsin at 37° ° C. overnight. This solution was subjected to solid phase extraction to concentrate the peptides and remove unwanted reagents followed by injection onto a Shimadzu HPLC with fraction collector. Eight fractions were collected and after concentration were injected on a Waters NanoAcquity HPLC equipped with a self-packed Aeris 3 μm C18 analytical column 0.075 mm by 20 cm, (Phenomenex). Peptides were eluted using standard reverse-phase gradients. The effluent from the column was analyzed using a Thermo Orbitrap Elite mass spectrometer (nanospray configuration) operated in a data dependent manner for 54 minutes. The resulting fragmentation spectra were correlated against the known database using Proteome Discover 1.4 (Thermo Fisher Scientific).

CD70 = target: T2, CD70 (human, UniProt P32970 1-193)
T2 construct: also called NP_001243.1
T2 sequence (looked up): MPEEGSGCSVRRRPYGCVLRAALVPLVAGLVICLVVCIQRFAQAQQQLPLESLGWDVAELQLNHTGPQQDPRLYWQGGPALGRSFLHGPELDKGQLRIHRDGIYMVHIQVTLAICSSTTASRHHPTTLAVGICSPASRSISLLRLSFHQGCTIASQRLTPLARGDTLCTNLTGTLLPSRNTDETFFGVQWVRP
Experimental: as §1, §2

CTHRC1 = target: T3, CTHRC1 (human, UniProt Q96CG8-3 1-229, limits assumed)
T3 construct: also called NP_001243028.1 (+1)
T3 sequence (Q96CG8 other isoform, or with tags, fused parts or gaps limits assumed): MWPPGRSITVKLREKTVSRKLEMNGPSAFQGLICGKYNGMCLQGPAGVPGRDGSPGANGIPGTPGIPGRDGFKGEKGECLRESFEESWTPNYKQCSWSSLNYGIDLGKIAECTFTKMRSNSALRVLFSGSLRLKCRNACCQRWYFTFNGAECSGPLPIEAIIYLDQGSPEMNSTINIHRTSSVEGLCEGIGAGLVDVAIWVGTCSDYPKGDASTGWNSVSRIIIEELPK
Experimental: as §1, §2

RPL32 = RPL32 (human, UniProt P62910 2-135)
Experimental: as §1, §2

CCT2 = target: T4, CCT2 (human, UniProt P78371-2 1-488, limits assumed)
T4 construct: also called NP_001185771.1 (+1)
T4 sequence (looked up): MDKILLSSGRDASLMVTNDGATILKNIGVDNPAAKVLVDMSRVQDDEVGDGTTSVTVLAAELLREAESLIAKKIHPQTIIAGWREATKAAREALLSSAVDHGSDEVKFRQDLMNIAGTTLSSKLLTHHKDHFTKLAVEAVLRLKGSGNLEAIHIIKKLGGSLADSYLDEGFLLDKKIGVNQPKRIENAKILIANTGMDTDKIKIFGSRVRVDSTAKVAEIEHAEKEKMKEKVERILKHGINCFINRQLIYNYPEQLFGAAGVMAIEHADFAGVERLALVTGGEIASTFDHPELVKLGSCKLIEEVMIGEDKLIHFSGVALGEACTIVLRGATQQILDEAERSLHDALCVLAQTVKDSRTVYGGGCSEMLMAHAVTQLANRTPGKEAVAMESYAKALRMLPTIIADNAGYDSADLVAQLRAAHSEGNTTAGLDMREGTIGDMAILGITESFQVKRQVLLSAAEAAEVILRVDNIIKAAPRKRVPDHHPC
Experimental: as §1, §2

Measured: co-IP mass spectrometry count

B1: N-terminal FLAG tagged B3GNT2 (enzyme, human, UniProt Q9NY97 1-397, looked up)
chain: MSVGRRRIKLLGILMMANVFIYFIMEVSKSSSQEKNGKGEVIIPKEKFWKISTPPEAYWNREQEKLNRQYNPILSMLTNQTGEAGRLSNISHLNYCEPDLRVTSVVTGFNNLPDRFKDFLLYLRCRNYSLLIDQPDKCAKKPFLLLAIKSLTPHFARRQAIRESWGQESNAGNQTVVRVFLLGQTPPEDNHPDLSDMLKFESEKHQDILMWNYRDTFFNLSLKEVLFLRWVSTSCPDTEFVFKGDDDVFVNTHHILNYLNSLSKTKAKDLFIGDVIHNAGPHRDKKLKYYIPEVVYSGLYPPYAGGGGFLYSGHLALRLYHITDQVHLYPIDDVYTGMCLQKLGLVPEKHKGFRTFDIEEKNKNNICSYVDLMLVHSRKPQEMIDIWSQLQSAHLKC
notes: Bait of the co-IP; pulled down with mouse anti-FLAG (Millipore Sigma F3165) from cell lysate; also called N-FLAG B3GNT2; N-term FLAG; not shown: N-terminal FLAG tag
0: all assays above
